Patent publication US5624659, “Method of treating brain tumors expressing tenascin” (Duke University, dated 1997)

Target: tenascin on the tenascin-expressing human glioma cell line U-251 MG-C3 (glutaraldehyde-fixed) (human, UniProt P24821)
Experiment: modified Scatchard analysis, 125I-labelled antibody on glutaraldehyde-fixed U-251 MG-C3 cells
Protocol: A modified Scatchard analysis was used to measure the binding affinity of labeled ch81C6. Serially diluted 125I-labeled antibody (200 μl, 1:2 dilution starting from 1600 ng/ml) was incubated in 48-well plates overnight at 37° C. with the antigen-positive human glioma cell line U-251 MG-C3 fixed in glutaraldehyde and the antigen-negative human osteogenic sarcoma cell line 2T. The cells were washed and solubilized with 2N NaOH, and the radioactivity was measured with a gamma counter. The data was analyzed in accordance with known techniques (Y. S. Lee et al., *Cancer Res.* 48, 559 (1988)).
The ch81C6 from high production transfectoma F9C11A5 was purified and further characterized. It was labeled with ^125I using the Iodogen method, and the percentage of immunoreactivity was determined by absorption with D-54 MG xenograft homogenate. The affinity constant was defined by Scatchard analysis using binding assay on a tenascin-expressing cell line U-251 MGC-3 as described above.

B1: chimeric 81C6 (mouse/human chimeric antibody, human IgG2, from transfectoma F9C11A5) (antibody, V domains shown)
VH: EVQLQQSGPELVKPGASVKMSCKASGYTFTSYVVHWVKQNPGQGLEWIGYINPFNDGTKYNENFKGKATLTSDRSSSTAYMELSSLTSEESAVYFCARDMGREGFAYWGQGTLVTVSA
VL: DIVMTQAAFSNPVTLGTSASISCRSSKSLLHSNGITYLYWYLQKPGQSPQLLIYQMSNLASGVPDRFSSSGSGTDFTLRISRVEAEDVGVYYCAQNLELPRTFGGGTKLEIK
In the case of B1, the Ka is reported as 1.67e+08 M⁻¹.
